Measured values published in paper doi:10.1101/2021.03.31.438001.

Target: Pr17 (OAD22177.1), secreted protein of Candidatus Thiomargarita nelsonii (Candidatus Thiomargarita nelsonii)
Test: non-reducing SDS-PAGE

## Pr17 (OAD22177.1), secreted protein of Candidatus Thiomargarita nelsonii (natural protein)
  stoichiometry N: 2
